Data as given in PMC11670205 (Frontiers in Immunology, 2024).

B1: tezepelumab analogue antibody (antibody, V domains shown)
VH: QMQLVESGGGVVQPGRSLRLSCAASGFTFRTYGMHWVRQAPGKGLEWVAVIWYDGSNKHYADSVKGRFTITRDNSKNTLNLQMNSLRAEDTAVYYCARAPQWELVHEAFDIWGQGTMVTVSS
VL: SYVLTQPPSVSVAPGQTARITCGGNNLGSKSVHWYQQKPGQAPVLVVYDDSDRPSWIPERFSGSNSGNTATLTISRGEAGDEADYYCQVWDSSSDHVVFGGGTKLTVL
notes: heavy chain of tezepelumab as deposited in PDB 5J13; rest of the heavy chain constant region (hinge, Fc) beyond what the PDB entry holds; light chain of tezepelumab as deposited in PDB 5J13; It was captured by anti-Fc probes and detected with anti-human IgG; also called AMG157; MEDI9929; source: Expi293F, transfected, purified (MabSelect SuRe, desalting column)

Tests used:
[1] = target: human TSLP receptor complex composed of IL-7Rα and TSLPR expressed on cell surface of transfected HEK293T (human) (UniProt Q9HC73)
[2] = target: T1, recombinant cynomolgus monkey TSLP (Macaca fascicularis, UniProt A0A7N9CAT7); assay: ELISA; recombinant TSLP coated at 1 μg/mL in DPBS pH 7.2 overnight at 4°C; antibodies in serial 3-fold dilutions from 1 μg/mL, 2 hours at room temperature; HRP anti-human IgG detection; conditions: both partners purified
T1 construct: thymic stromal lymphopoietin, cynomolgus monkey; source: bought: AcroBiosystems

recombinant mouse TSLP = target: T2, recombinant mouse TSLP (Mus musculus, UniProt Q9JIE6); assay: as above; conditions: both partners purified
T2 construct: thymic stromal lymphopoietin, mouse; also called murine TSLP; source: bought: AcroBiosystems
T2 sequence (Q9JIE6 20-140): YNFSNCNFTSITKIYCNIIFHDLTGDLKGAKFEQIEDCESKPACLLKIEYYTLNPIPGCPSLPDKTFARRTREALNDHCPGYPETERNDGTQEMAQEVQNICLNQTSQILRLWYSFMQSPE

Chain of human TSLP receptor complex composed of IL-7Rα and TSLPR expressed on cell surface of transfected HEK293T (human) (Q9HC73 23-371, chain 1 of 2): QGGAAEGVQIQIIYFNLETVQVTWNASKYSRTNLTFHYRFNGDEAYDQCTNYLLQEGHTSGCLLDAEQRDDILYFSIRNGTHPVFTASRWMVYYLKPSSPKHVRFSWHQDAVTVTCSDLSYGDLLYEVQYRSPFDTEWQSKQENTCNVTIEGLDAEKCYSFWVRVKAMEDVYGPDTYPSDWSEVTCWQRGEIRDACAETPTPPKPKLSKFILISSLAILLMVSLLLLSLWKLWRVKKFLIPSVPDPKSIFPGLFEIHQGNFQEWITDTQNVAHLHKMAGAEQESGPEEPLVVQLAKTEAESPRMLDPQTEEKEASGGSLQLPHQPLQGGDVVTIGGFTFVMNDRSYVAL
Chain of human TSLP receptor complex composed of IL-7Rα and TSLPR expressed on cell surface of transfected HEK293T (human) (chain, as listed by the source, chain 2 of 2): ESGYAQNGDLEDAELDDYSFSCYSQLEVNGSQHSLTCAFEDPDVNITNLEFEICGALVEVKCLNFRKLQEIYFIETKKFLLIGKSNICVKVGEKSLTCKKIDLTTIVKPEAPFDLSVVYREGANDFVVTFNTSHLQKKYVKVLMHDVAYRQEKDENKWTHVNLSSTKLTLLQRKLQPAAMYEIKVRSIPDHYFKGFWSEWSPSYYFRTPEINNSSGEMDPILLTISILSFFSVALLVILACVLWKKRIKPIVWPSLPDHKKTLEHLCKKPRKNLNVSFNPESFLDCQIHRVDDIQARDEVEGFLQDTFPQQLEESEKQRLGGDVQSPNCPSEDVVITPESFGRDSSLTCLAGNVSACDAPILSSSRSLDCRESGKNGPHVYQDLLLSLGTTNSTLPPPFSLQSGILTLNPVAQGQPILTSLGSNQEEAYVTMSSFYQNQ

Molecule | EC50 of TSLP-driven STAT5 luciferase reporter gene expression in HEK293T cells transfected with TSLPR and IL-7Rα [1] [ng/mL] | binding result [2] | binding result (recombinant mouse TSLP)
recombinant human thymic stromal lymphopoietin (from UniProt Q969D9 29-159) (ligand) | 1.1 | – | –
B1 | – | binds | no binding (tested: 1 μg/mL)
